B1: SMA immunoglobulin light chain variable domain (kappa 4), recombinant (domain or fragment)
VL: not shown
notes: 114 amino acid kappa 4 light chain variable domain SMA, first extracted as amyloid fibrils from a patient with AL amyloidosis; The C-terminal Lys-His8 of pOPINO was removed by a premature stop codon; the ompA leader is cleaved; also called VL SMA; source: E. coli C41 (DE3), periplasmic expression, osmotic shock, purified (isoelectric precipitation, cation exchange, SEC); not shown: ompA leader …
B2: LEN immunoglobulin light chain variable domain (kappa 4), recombinant (domain or fragment)
VL: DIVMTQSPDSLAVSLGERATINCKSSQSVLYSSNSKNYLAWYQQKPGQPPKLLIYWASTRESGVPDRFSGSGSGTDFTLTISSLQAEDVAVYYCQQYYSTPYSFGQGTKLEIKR
notes: 114 amino acid kappa 4 light chain variable domain of the Bence Jones protein LEN, from a patient with multiple myeloma; The C-terminal Lys-His8 of pOPINO was removed by a premature stop codon; removal of the ompA leader was confirmed by mass spectrometry, so the protein has no added residues; also called VL LEN; source: E. coli C41 (DE3), periplasmic expression, osmotic shock, purified …

Biological target: the molecule itself
Experiment: SEC-MALS; 1.0 mg/mL protein on HiLoad 16/60 Superdex 75 in 10 mM Tris-HCl pH 7.5, 150 mM NaCl, 0.75 mL/min, 25 °C; monomer to dimer

Protein	stoichiometry N
B1	2
B2	2

Reference: publication PMC6197867, “Isolation and purification of recombinant immunoglobulin light chain variable domains from the periplasmic space of Escherichia coli” (PLoS ONE, 2018)
